# Reference: US20200222478A1
# Target: HLA-A*03:01 (human)
# Assay: UV peptide exchange + HLA class I ELISA
# Conditions: remark: other sources report otherwise
row,Binder,exchange rate vs Pos peptide
1,YQFTFDLLI (here or on the partner: biotinylated heavy chain) [P48 9-mer peptide (AR.p.H875Y)],4.4%
2,RVGNCKHLK (here or on the partner: biotinylated heavy chain) [P82 9-mer peptide (AR-V7 splice variant)],58.1%
3,RAKCKFSIL (here or on the partner: biotinylated heavy chain) [P56 9-mer peptide (SPOP(F102C))],6.8%
4,HVPKILSGK (here or on the partner: biotinylated heavy chain) [P58 9-mer peptide (AR (Q903H))],32.5%
5,IVWWCPMSR (here or on the partner: biotinylated heavy chain) [P98 9-mer peptide (TP53 (R213D) frameshift)],51.1%
6,YLRRQKRLK (here or on the partner: biotinylated heavy chain) [P60 9-mer peptide (FOXA1.p.F266L)],36.6%
7,IPVLTRWPL (here or on the partner: biotinylated heavy chain) [P19 9-mer peptide (TMEM222-LOC644961 fusion)],4.1%
8,CPMSRLRLA (here or on the partner: biotinylated heavy chain) [P46 9-mer peptide (TP53 (R213D) frameshift)],10.3%
9,YCMAAPMGL (here or on the partner: biotinylated heavy chain) [P76 9-mer peptide (AR-V3 splice variant)],6%
10,FLFLLLPLS (here or on the partner: biotinylated heavy chain) [P87 9-mer peptide (AR-Intron splice variant)],2.4%
11,QLIAMDSAI (here or on the partner: biotinylated heavy chain) [P22 9-mer peptide (SLC45A3-ELK4 fusion)],4.8%
12,RAVRRMNTF (here or on the partner: biotinylated heavy chain) [P17 9-mer peptide (MSMB-NOCA4 fusion)],3.8%
13,LLERNSFEV (here or on the partner: biotinylated heavy chain) [P73 9-mer peptide (TP53 (G266E))],3.5%
14,LMAQRLLLR (here or on the partner: biotinylated heavy chain) [P97 9-mer peptide (FOXRED2-TXN2 fusion)],39%

# Target: HLA-A*02:01 (human)
# Assay: UV peptide exchange + HLA class I ELISA
# Conditions: remark: other sources report otherwise
row,Binder,exchange rate vs Pos peptide
1,YQFTFDLLI (here or on the partner: biotinylated heavy chain) [P48 9-mer peptide (AR.p.H875Y)],99.3%
2,RVGNCKHLK (here or on the partner: biotinylated heavy chain) [P82 9-mer peptide (AR-V7 splice variant)],6.3%
3,RAKCKFSIL (here or on the partner: biotinylated heavy chain) [P56 9-mer peptide (SPOP(F102C))],8.4%
4,HVPKILSGK (here or on the partner: biotinylated heavy chain) [P58 9-mer peptide (AR (Q903H))],11.8%
5,IVWWCPMSR (here or on the partner: biotinylated heavy chain) [P98 9-mer peptide (TP53 (R213D) frameshift)],7.9%
6,YLRRQKRLK (here or on the partner: biotinylated heavy chain) [P60 9-mer peptide (FOXA1.p.F266L)],7.9%
7,IPVLTRWPL (here or on the partner: biotinylated heavy chain) [P19 9-mer peptide (TMEM222-LOC644961 fusion)],8.2%
8,CPMSRLRLA (here or on the partner: biotinylated heavy chain) [P46 9-mer peptide (TP53 (R213D) frameshift)],14.4%
9,YCMAAPMGL (here or on the partner: biotinylated heavy chain) [P76 9-mer peptide (AR-V3 splice variant)],85.9%
10,FLFLLLPLS (here or on the partner: biotinylated heavy chain) [P87 9-mer peptide (AR-Intron splice variant)],64%
11,QLIAMDSAI (here or on the partner: biotinylated heavy chain) [P22 9-mer peptide (SLC45A3-ELK4 fusion)],46.9%
12,CYLGRQKRF (here or on the partner: biotinylated heavy chain) [P61 9-mer peptide (FOXA1.p.R261G)],5.8%
13,LLERNSFEV (here or on the partner: biotinylated heavy chain) [P73 9-mer peptide (TP53 (G266E))],89.2%
14,LMAQRLLLR (here or on the partner: biotinylated heavy chain) [P97 9-mer peptide (FOXRED2-TXN2 fusion)],4.6%

# Target: HLA-B*08:01 (human)
# Assay: UV peptide exchange + HLA class I ELISA
# Conditions: remark: other sources report otherwise
row,Binder,exchange rate vs Pos peptide
1,RVGNCKHLK (here or on the partner: biotinylated heavy chain) [P82 9-mer peptide (AR-V7 splice variant)],1.4%
2,RAKCKFSIL (here or on the partner: biotinylated heavy chain) [P56 9-mer peptide (SPOP(F102C))],38%
3,HVPKILSGK (here or on the partner: biotinylated heavy chain) [P58 9-mer peptide (AR (Q903H))],5.3%
4,IVWWCPMSR (here or on the partner: biotinylated heavy chain) [P98 9-mer peptide (TP53 (R213D) frameshift)],2.4%
5,YLRRQKRLK (here or on the partner: biotinylated heavy chain) [P60 9-mer peptide (FOXA1.p.F266L)],10.2%
6,IPVLTRWPL (here or on the partner: biotinylated heavy chain) [P19 9-mer peptide (TMEM222-LOC644961 fusion)],14.5%
7,CPMSRLRLA (here or on the partner: biotinylated heavy chain) [P46 9-mer peptide (TP53 (R213D) frameshift)],14.5%
8,FLFLLLPLS (here or on the partner: biotinylated heavy chain) [P87 9-mer peptide (AR-Intron splice variant)],3.1%
9,QLIAMDSAI (here or on the partner: biotinylated heavy chain) [P22 9-mer peptide (SLC45A3-ELK4 fusion)],3.9%
10,CYLGRQKRF (here or on the partner: biotinylated heavy chain) [P61 9-mer peptide (FOXA1.p.R261G)],3.6%
11,LLERNSFEV (here or on the partner: biotinylated heavy chain) [P73 9-mer peptide (TP53 (G266E))],2.6%
12,LMAQRLLLR (here or on the partner: biotinylated heavy chain) [P97 9-mer peptide (FOXRED2-TXN2 fusion)],2.7%

# Target: HLA-B*07:02 (human)
# Assay: UV peptide exchange + HLA class I ELISA
# Conditions: remark: other sources report otherwise
row,Binder,exchange rate vs Pos peptide
1,YQFTFDLLI (here or on the partner: biotinylated heavy chain) [P48 9-mer peptide (AR.p.H875Y)],12.8%
2,RVGNCKHLK (here or on the partner: biotinylated heavy chain) [P82 9-mer peptide (AR-V7 splice variant)],12.9%
3,RAKCKFSIL (here or on the partner: biotinylated heavy chain) [P56 9-mer peptide (SPOP(F102C))],82.5%
4,IVWWCPMSR (here or on the partner: biotinylated heavy chain) [P98 9-mer peptide (TP53 (R213D) frameshift)],6.7%
5,YLRRQKRLK (here or on the partner: biotinylated heavy chain) [P60 9-mer peptide (FOXA1.p.F266L)],6.1%
6,IPVLTRWPL (here or on the partner: biotinylated heavy chain) [P19 9-mer peptide (TMEM222-LOC644961 fusion)],91.3%
7,CPMSRLRLA (here or on the partner: biotinylated heavy chain) [P46 9-mer peptide (TP53 (R213D) frameshift)],64.8%
8,YCMAAPMGL (here or on the partner: biotinylated heavy chain) [P76 9-mer peptide (AR-V3 splice variant)],91.5%
9,FLFLLLPLS (here or on the partner: biotinylated heavy chain) [P87 9-mer peptide (AR-Intron splice variant)],5%
10,QLIAMDSAI (here or on the partner: biotinylated heavy chain) [P22 9-mer peptide (SLC45A3-ELK4 fusion)],8.3%
11,RAVRRMNTF (here or on the partner: biotinylated heavy chain) [P17 9-mer peptide (MSMB-NOCA4 fusion)],38.7%
12,LLERNSFEV (here or on the partner: biotinylated heavy chain) [P73 9-mer peptide (TP53 (G266E))],8.7%
13,LMAQRLLLR (here or on the partner: biotinylated heavy chain) [P97 9-mer peptide (FOXRED2-TXN2 fusion)],7%

# Target: HLA-A*01:01 (human)
# Assay: UV peptide exchange + HLA class I ELISA
# Conditions: remark: other sources report otherwise
row,Binder,exchange rate vs Pos peptide
1,YQFTFDLLI (here or on the partner: biotinylated heavy chain) [P48 9-mer peptide (AR.p.H875Y)],4.3%
2,RVGNCKHLK (here or on the partner: biotinylated heavy chain) [P82 9-mer peptide (AR-V7 splice variant)],1.5%
3,RAKCKFSIL (here or on the partner: biotinylated heavy chain) [P56 9-mer peptide (SPOP(F102C))],2.6%
4,HVPKILSGK (here or on the partner: biotinylated heavy chain) [P58 9-mer peptide (AR (Q903H))],2.5%
5,IVWWCPMSR (here or on the partner: biotinylated heavy chain) [P98 9-mer peptide (TP53 (R213D) frameshift)],2.5%
6,YLRRQKRLK (here or on the partner: biotinylated heavy chain) [P60 9-mer peptide (FOXA1.p.F266L)],3.1%
7,IPVLTRWPL (here or on the partner: biotinylated heavy chain) [P19 9-mer peptide (TMEM222-LOC644961 fusion)],5.2%
8,CPMSRLRLA (here or on the partner: biotinylated heavy chain) [P46 9-mer peptide (TP53 (R213D) frameshift)],2.4%
9,YCMAAPMGL (here or on the partner: biotinylated heavy chain) [P76 9-mer peptide (AR-V3 splice variant)],0.1%
10,FLFLLLPLS (here or on the partner: biotinylated heavy chain) [P87 9-mer peptide (AR-Intron splice variant)],1.1%
11,QLIAMDSAI (here or on the partner: biotinylated heavy chain) [P22 9-mer peptide (SLC45A3-ELK4 fusion)],4.4%
12,RAVRRMNTF (here or on the partner: biotinylated heavy chain) [P17 9-mer peptide (MSMB-NOCA4 fusion)],4.9%
13,CYLGRQKRF (here or on the partner: biotinylated heavy chain) [P61 9-mer peptide (FOXA1.p.R261G)],1.7%
14,LMAQRLLLR (here or on the partner: biotinylated heavy chain) [P97 9-mer peptide (FOXRED2-TXN2 fusion)],2.5%

# Target: HLA-A*24:02 (human)
# Assay: UV peptide exchange + HLA class I ELISA
# Conditions: remark: other sources report otherwise
row,Binder,exchange rate vs Pos peptide
1,YQFTFDLLI (here or on the partner: biotinylated heavy chain) [P48 9-mer peptide (AR.p.H875Y)],0.1%
2,RVGNCKHLK (here or on the partner: biotinylated heavy chain) [P82 9-mer peptide (AR-V7 splice variant)],-0.1%
3,RAKCKFSIL (here or on the partner: biotinylated heavy chain) [P56 9-mer peptide (SPOP(F102C))],0.5%
4,HVPKILSGK (here or on the partner: biotinylated heavy chain) [P58 9-mer peptide (AR (Q903H))],0.2%
5,IVWWCPMSR (here or on the partner: biotinylated heavy chain) [P98 9-mer peptide (TP53 (R213D) frameshift)],-0.1%
6,YLRRQKRLK (here or on the partner: biotinylated heavy chain) [P60 9-mer peptide (FOXA1.p.F266L)],0.9%
7,IPVLTRWPL (here or on the partner: biotinylated heavy chain) [P19 9-mer peptide (TMEM222-LOC644961 fusion)],0.1%
8,CPMSRLRLA (here or on the partner: biotinylated heavy chain) [P46 9-mer peptide (TP53 (R213D) frameshift)],-0.4%
9,YCMAAPMGL (here or on the partner: biotinylated heavy chain) [P76 9-mer peptide (AR-V3 splice variant)],-0.5%
10,FLFLLLPLS (here or on the partner: biotinylated heavy chain) [P87 9-mer peptide (AR-Intron splice variant)],0.2%
11,QLIAMDSAI (here or on the partner: biotinylated heavy chain) [P22 9-mer peptide (SLC45A3-ELK4 fusion)],0%
12,RAVRRMNTF (here or on the partner: biotinylated heavy chain) [P17 9-mer peptide (MSMB-NOCA4 fusion)],0.1%
13,CYLGRQKRF (here or on the partner: biotinylated heavy chain) [P61 9-mer peptide (FOXA1.p.R261G)],90.3%
14,LLERNSFEV (here or on the partner: biotinylated heavy chain) [P73 9-mer peptide (TP53 (G266E))],0.5%
15,LMAQRLLLR (here or on the partner: biotinylated heavy chain) [P97 9-mer peptide (FOXRED2-TXN2 fusion)],0.1%
